Measurements taken from publication PMC6947424, “New Targeted Gold Nanorods for the Treatment of Glioblastoma by Photodynamic Therapy” (Journal of Clinical Medicine, 2019).
Blank lines part the entries; values can stand above or below the molecule they belong to. No end group written: not given here. *: point of attachment. Pyropheophorbide(a) = C=Cc1c(C)c2cc3nc(c4c5[nH]c(cc6nc(cc1[nH]2)C(C)=C6CC)c(C)c5C(=O)C4)[C@@H](CCC(=O)*)[C@@H]3C; Hexanoyl(6-maleimido) = O=C1C=CC(=O)N1CCCCCC(=O)*

Key:
UV-vis absorption = assay type: physicochemical; conditions: ethanol, Soret band
Procedure: (§1) The setup and the protocol to evaluate the photophysical characterizations including the absorption, fluorescence, and singlet oxygen emission spectra in addition to the fluorescence and singlet oxygen lifetimes have been previously described by our team. The absorption spectra were recorded on a UV-3600 UV–vis double beam spectrophotometer (Shimadzu, Marne La Vallée, France) in the wavelength range of 200-800 nm. The measurements were performed on the molecules dispersed in ethanol in quartz cuvettes with an optical path of 10 mm. The fluorescence spectra were recorded on a Horiba Jobin Yvon Fluorolog-3 (FL3-222) spectrofluorimeter equipped with a 450W xenon lamp, a thermostated cell compartment (25 °C), a R928 (Hamamatsu, Massy, France) UV–vis photomultiplier and a liquid nitrogen cooled InGaAs infrared detector (DSS-16A020L Electro-Optical System Inc., Phoenixville, PA, USA). The excitation spectrometer used is a SPEX double grating monochromator (1200 grooves per mm blazed at 330 nm). The fluorescence was measured using the UV–vis detector through a SPEX double grating monochromator (600 grooves per mm blazed at 500 nm). The singlet oxygen production was measured using the IR detector through a SPEX double grating monochromator (600 grooves per mm blazed at 1 μm).
The photophysical properties at the different synthetic stages of the hybrid AuNRs@PEG-MI-K(Pyro)DKPPR-OH, including the peptide derivatives as intermediates, were studied and compared to that of free Pyro. These properties include the UV-vis absorption, the florescence emission (quantum yield (Φf) and lifetime (τf)) and the ^1O2 production (quantum yield (ΦΔ) and lifetime (τΔ)). To determine these properties, the optical density (OD) of the Soret band of the Pyro component (412 nm) was adjusted at about 0.2. Controls, such as TPP dissolved in toluene, as a standard for fluorescence emission, and RB dissolved in ethanol, as a standard for ^1O2 production, were used. Ethanol was chosen to dissolve the studied molecules since it is a convenient solvent for the detection of fluorescence and ^1O2 emission. […]

[1] = Fluorescence emission (quantum yield and lifetime); assay type: physicochemical; conditions: ethanol
Procedure: as §1
(§2) Fluorescence quantum yields (Φf) were determined using a tetraphenyl porphyrin (TPP) solution as the fluorescence standard (Φf = 0.11 in toluene, taking into account solvent refractive index and absorption efficiencies. For the direct determination of ^1O2 quantum yield (ΦΔ), excitation was performed with a Xe-arc, the light was separated in a SPEX 1680, 0.22 µm double monochromator. Detection at 1270 nm was carried out through a PTI S/N 1565 monochromator and the emission was monitored by a liquid nitrogen cooled Ge-detector (EO-817L, North Coast Scientific Co, OH, USA). Rose Bengal (RB) was chosen as a reference solution because of its high ^1O2 quantum yield in EtOH (ΦΔ = 0.68). The absorbance value at the excitation wavelengths (412 nm) of both the reference and the sample solutions were set to approximately 0.2 by dilution. The samples were all prepared in ethanol.
The quantum yield of fluorescence is determined by the equation (1):(1) Φf=Φf0×If/If0×[…]×(n/n0)^2 where Φf and Φf0, If and If0, DO and DO0, n and n0 are the quantum yields, intensities, optical densities and refraction indices of the sample and reference, respectively.
(§3) Fluorescence lifetimes were measured by Time-Correlated Single Photon Counting (TCSPC) using for excitation a pulsed laser diode LDH-P-C-405 coupled with a PDL 800-D driver (both from PicoQuant GmbH, Berlin, Germany) emitting at 408 nm (FWHM < 70 ps, 1 MHz) and an SPCM-AQR-15 avalanche photodiode (EG & G, Vaudreuil, Canada) coupled with a 650 nm (±10 nm) interference long-wave pass filter as the detection system. The acquisition system was a PicoHarp 300 module with a PHR-800 four-channel router (both from PicoQuant GmbH, Berlin, Germany). Fluorescence decays were recorded using the single photon counting method (four optical faced quartz cells for pure products in ethanol). Data were collected, and up to 1000 counts were accumulated in the maximum channel and analyzed using Fluofit TCSPC software (PicoQuant GmbH, Berlin, Germany) based on iterative reconvolution using a Levensberg-Marquandt algorithm. Singlet oxygen lifetime measurements have been performed on a TEMPRO-01 spectrophotometer (Horiba Jobin Yvon, Palaiseau, France). The apparatus was composed of a pulsed diode excitation source SpectraLED-415 emitting at 415 nm, a cuvette compartment, a Seya–Namioka type emission monochromator (600–2000 nm), and an H10330-45 near-infrared photomultiplier tube with a thermoelectric cooler (Hamamatsu, Massy, France) as the detection system. The system was monitored by a single photon counting controller FluoroHub-B and the software DataStation and DAS6 (Horiba Jobin Yvon, Palaiseau, France). […]

[2] = Singlet oxygen production (quantum yield and lifetime); assay type: physicochemical; conditions: ethanol
Procedure: as §1, §2
The quantum yield of singlet oxygen production is determined by the equation (2):(2) ΦΔ=ΦΔ0×I/I0×[…] where ΦΔ and ΦΔ0, I and I0, DO and DO0 are the luminescence quantum yields of singlet oxygen, the luminescence intensities and the optical densities of the sample and reference, respectively.
as §3

[3] = in toluene; ref [72]; cited from earlier work
Procedure: Fluorescence quantum yields (Φf) were determined using a tetraphenyl porphyrin (TPP) solution as the fluorescence standard (Φf = 0.11 in toluene, taking into account solvent refractive index and absorption efficiencies. For the direct determination of ^1O2 quantum yield (ΦΔ), excitation was performed with a Xe-arc, the light was separated in a SPEX 1680, 0.22 µm double monochromator. Detection at 1270 nm was carried out through a PTI S/N 1565 monochromator and the emission was monitored by a liquid nitrogen cooled Ge-detector (EO-817L, North Coast Scientific Co, OH, USA). Rose Bengal (R ... || These findings are also consistent with the Φf value of Pyro reported by other authors (Φf = 0.3 and in methanol). […] This property can serve in the ...

[4] = in EtOH; ref [73]; cited from earlier work
Procedure: Fluorescence quantum yields (Φf) were determined using a tetraphenyl porphyrin (TPP) solution as the fluorescence standard (Φf = 0.11 in toluene, taking into account solvent refractive index and absorption efficiencies. For the direct determination of ^1O2 quantum yield (ΦΔ), excitation was performed with a Xe-arc, the light was separated in a SPEX 1680, 0.22 µm double monochromator. Detection at 1270 nm was carried out through a PTI S/N 1565 monochromator and the emission was monitored by a liquid nitrogen cooled Ge-detector (EO-817L, North Coast Scientific Co, OH, USA). Rose Bengal (R ...

[5] = biological target: T1, recombinant NRP-1 protein (neuropilin-1) (UniProt O14786 22-856); assay: ELISA; competition; NRP-1 coated on 96 well plate at 2 μg/mL in PBS overnight at room temperature, blocked with PBS 0.5 % BSA; 5 ng/mL biotinylated VEGF-A165 in blocking buffer with 2 μg/mL heparin, with different peptide concentrations of competitor, 2 h at room temperature; streptavidin-HRP, OD 450 nm; conditions: both partners purified
T1 construct: Neuropilin-1 (NRP-1), recombinant protein bought from Bio-Techne; Coated on the ELISA plate; also called neuropilin-1 receptor; NPR-1; source: bought: Bio-Techne
T1 sequence (looked up): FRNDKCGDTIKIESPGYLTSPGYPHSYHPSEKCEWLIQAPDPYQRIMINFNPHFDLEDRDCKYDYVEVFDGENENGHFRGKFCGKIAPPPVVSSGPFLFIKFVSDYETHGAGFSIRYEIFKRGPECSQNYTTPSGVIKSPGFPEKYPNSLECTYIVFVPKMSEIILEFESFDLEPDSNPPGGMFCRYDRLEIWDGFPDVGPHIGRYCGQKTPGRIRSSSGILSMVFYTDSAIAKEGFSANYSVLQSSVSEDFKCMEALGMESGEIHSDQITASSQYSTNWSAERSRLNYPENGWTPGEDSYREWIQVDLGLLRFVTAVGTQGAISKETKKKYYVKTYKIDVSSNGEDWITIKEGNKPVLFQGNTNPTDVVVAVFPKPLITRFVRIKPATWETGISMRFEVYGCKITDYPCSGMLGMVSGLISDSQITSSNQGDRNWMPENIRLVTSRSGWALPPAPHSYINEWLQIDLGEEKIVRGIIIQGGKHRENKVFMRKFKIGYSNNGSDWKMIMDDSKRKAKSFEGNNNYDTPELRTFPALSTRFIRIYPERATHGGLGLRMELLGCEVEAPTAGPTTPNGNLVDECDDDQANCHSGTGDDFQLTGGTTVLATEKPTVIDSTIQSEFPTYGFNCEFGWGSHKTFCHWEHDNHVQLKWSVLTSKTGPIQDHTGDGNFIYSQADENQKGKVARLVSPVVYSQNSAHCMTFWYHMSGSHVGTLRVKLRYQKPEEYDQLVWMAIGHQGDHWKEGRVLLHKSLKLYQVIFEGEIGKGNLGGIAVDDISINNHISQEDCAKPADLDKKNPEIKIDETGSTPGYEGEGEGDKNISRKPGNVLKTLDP

Molecule: H-K(Pyro)DKPPR-OH [DKPPR peptide extended with Pyro-bearing lysine, free N-terminus]
λmax (UV-vis absorption): 412 nm | τf (fluorescence lifetime) ([1]; TCSPC, single exponential fit): 6.8 ns | Φf (fluorescence quantum yield) ([1]; excitation 412 nm, TPP in toluene as standard, 25 °C): 0.34 | τΔ (singlet oxygen lifetime) [2]: 14 μs | ΦΔ (singlet oxygen quantum yield) ([2]; excitation 412 nm, detection 1270 nm, Rose Bengal as reference): 0.44

Molecule: C1=Cc2nc1c(-c1ccccc1)c1nc(c(-c3ccccc3)c3ccc([nH]3)c(-c3ccccc3)c3ccc([nH]3)c2-c2ccccc2)C=C1 [TPP, tetraphenyl porphyrin]
Φf of fluorescence standard [3]: 0.11

Molecule: O=C([O-])c1c(Cl)c(Cl)c(Cl)c(Cl)c1-c1c2cc(I)c(=O)c(I)c-2oc2c(I)c([O-])c(I)cc12.[Na+].[Na+] [Rose Bengal]
ΦΔ of singlet oxygen reference [4]: 0.68

IC50 [5]: 1500 nM
B1: MI-K(Pyro)DKPPR-OH (peptide)
peptide: {Hexanoyl(6-maleimido)}-K(Pyropheophorbide(a))DKPPR-OH
SMILES: C=Cc1c(C)c2cc3nc(c4c5[nH]c(cc6nc(cc1[nH]2)C(C)=C6CC)c(C)c5C(=O)C4)[C@@H](CCC(=O)NCCCC[C@H](NC(=O)CCCCCN1C(=O)C=CC1=O)C(=O)N[C@@H](CC(=O)O)C(=O)N[C@@H](CCCCN)C(=O)N1CCC[C@H]1C(=O)N1CCC[C@H]1C(=O)N[C@@H](CCCNC(=N)N)C(=O)O)[C@@H]3C
notes: KDKPPR peptide; first lysine bears Pyro on its side chain and MI on its alpha-amine; free C-terminal acid; also called PP-PS conjugate; peptide-photosensitizer conjugate; source: synthetic peptide (Fmoc/tBu solid phase, preparative HPLC)

IC50 [5]: 2000 nM
B2: H-KDKPPR-OH peptide (peptide)
peptide: H-KDKPPR-OH
notes: free peptide with free N-terminus (H-) and free C-terminal acid (-OH), developed by the authors' team to target NRP-1; also called free KDKPPR peptide; source: synthetic peptide

IC50 [5]: 1100 nM
B3: AuNRs@PEG-MI-K(Pyro)DKPPR-OH (other)
peptide: K(Pyropheophorbide(a))DKPPR-OH
modifications: not fully specified (N-terminus); printed as AuNRs@PEG-MI-K(Pyro)DKPPR-OH; also: MI joined by thioether to AuNRs@PEG-SH
notes: KDKPPR peptide of m4, grafted through its N-terminal maleimide onto the surface of PEGylated gold nanorods; Many peptide copies on each nanorod (multivalent); 1 mg/mL of the nanorods holds 257.7 µM of peptide; also called hybrid AuNRs; functionalized AuNRs
